Experiments:
[1] = target: Dnmt3a PWWP domain (UniProt O88508 288-346); test: fluorescence polarization; 100 uM AdoHcy; 60 nM DNA; 20 mM HEPES-NaOH pH 7.5, 100 mM KCl, 1 mM EDTA, 1 mM DTT, 100 uM AdoHcy, 10 nM DNA (60 nM for PWWP); FP temperature not stated; methylation competition at 37 C; settings: protein: recombinant; label: 5'-FAM; intramolecular parallel G4
[2] = target: M.SssI (UniProt P15840 1-386); test: fluorescence polarization; 100 uM AdoHcy; 20 mM HEPES-NaOH pH 7.5, 100 mM KCl, 1 mM EDTA, 1 mM DTT, 100 uM AdoHcy, 10 nM DNA (60 nM for PWWP); FP temperature not stated; methylation competition at 37 C; settings: protein: recombinant; label: 5'-FAM; intramolecular parallel G4
[3] = target: Dnmt3a-CD (mouse (murine), UniProt O88508 630-908); test: as above; settings: protein: recombinant, tags: N-terminal 6xHis, chain copies: 4

M.SssI, sequence (P15840 whole entry): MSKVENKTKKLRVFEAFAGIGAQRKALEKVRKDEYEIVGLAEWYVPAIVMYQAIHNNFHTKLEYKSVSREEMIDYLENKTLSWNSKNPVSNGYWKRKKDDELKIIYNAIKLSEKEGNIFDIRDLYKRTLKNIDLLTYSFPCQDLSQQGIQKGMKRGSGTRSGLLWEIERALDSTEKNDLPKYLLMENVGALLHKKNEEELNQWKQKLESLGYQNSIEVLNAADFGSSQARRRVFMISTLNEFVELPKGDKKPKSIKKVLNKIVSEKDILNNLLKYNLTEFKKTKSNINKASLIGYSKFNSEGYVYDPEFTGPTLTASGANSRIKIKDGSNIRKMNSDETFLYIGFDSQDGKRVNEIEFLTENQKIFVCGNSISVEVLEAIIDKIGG

| Binder | Kd [1] [nM] | Kd [2] [nM] | Kd ([3]; label: 5'-FAM, intramolecular parallel G4) [nM] | Kd ([3]; label: 5'-FAM on both strands, blunt) [nM] |
| --- | --- | --- | --- | --- |
| TGGGGAGGGTGGGGAGGGTGGGGAAGG (structured_DNA) [27fG4] | 900 ± 200 | 1200 ± 600 | 120 ± 30 | – |
| 30Uf/30Df (dsDNA) DNA 1: CTGAATACTACTTGCGCTCTCTAACCTGAT DNA 2: ATCAGGTTAGAGAGCGCAAGTAGTATTCAG | – | – | – | 220 ± 30 |

From paper PMC10779317, “Crosstalk between G-Quadruplexes and Dnmt3a-Mediated Methylation of the c-MYC Oncogene Promoter”
